Experimental data as given in patent publication US20240309087A1 (SHANGHAI JUNSHI BIOSCIENCES, published 2024).
Substitutions are numbered along the chain they refer to.

T1: human CD112R on CHO-CD112R cells (human, UniProt Q6DKI7 41-326)
T1 construct: whole, on cells; also called hCD112R; PVRIG
T1 sequence (looked up): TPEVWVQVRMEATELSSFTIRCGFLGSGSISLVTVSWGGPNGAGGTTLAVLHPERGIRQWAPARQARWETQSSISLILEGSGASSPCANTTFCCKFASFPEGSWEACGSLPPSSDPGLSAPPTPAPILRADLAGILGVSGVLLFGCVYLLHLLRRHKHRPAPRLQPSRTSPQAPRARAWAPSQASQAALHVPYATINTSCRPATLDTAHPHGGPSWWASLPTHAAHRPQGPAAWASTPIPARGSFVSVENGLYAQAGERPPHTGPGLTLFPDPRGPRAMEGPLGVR

T2: hCD112R mFC recombinant protein (human; murine, UniProt Q6DKI7 41-160)
T2 construct: range 41-160; expressed in 293E cells; also called hCD112R ECD mFC; hCD112R-ECD-mFC; not shown: murine IgG2a Fc domain (MX2-mFc vector)
T2 sequence (looked up): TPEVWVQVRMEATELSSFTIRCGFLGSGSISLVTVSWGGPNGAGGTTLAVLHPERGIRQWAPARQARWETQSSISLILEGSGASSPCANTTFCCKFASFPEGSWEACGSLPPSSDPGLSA

T3: human CD112R on Jurkat CD112R effector cells (human, UniProt Q6DKI7 1-326)
T3 sequence (looked up): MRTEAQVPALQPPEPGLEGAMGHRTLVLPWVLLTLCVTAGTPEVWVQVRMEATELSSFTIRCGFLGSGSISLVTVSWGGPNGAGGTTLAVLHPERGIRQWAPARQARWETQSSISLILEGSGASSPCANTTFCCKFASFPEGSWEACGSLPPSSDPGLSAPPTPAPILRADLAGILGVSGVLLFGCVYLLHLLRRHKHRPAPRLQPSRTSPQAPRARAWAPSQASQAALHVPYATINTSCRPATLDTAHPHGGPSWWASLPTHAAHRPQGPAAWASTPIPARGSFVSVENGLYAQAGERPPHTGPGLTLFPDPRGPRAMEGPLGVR

T4: recombinant cynomolgus monkey CD112R antigen (cynomolgus monkey, UniProt A0A2K5WVV8 1-322)
T4 construct: bought
T4 sequence: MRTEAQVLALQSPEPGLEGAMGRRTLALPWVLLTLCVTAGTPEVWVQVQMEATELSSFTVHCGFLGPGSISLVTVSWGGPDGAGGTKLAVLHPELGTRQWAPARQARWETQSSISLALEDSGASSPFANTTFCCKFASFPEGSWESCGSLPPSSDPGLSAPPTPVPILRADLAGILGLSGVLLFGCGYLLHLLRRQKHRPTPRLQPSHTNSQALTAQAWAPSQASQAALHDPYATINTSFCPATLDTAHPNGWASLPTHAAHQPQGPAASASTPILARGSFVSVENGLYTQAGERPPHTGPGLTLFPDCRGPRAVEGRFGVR

B1: Chi-45 (antibody, V domains shown)
VH: DVKLVESGGGLVKLGGSLKLSCAASGFTFSSYHMSWVRQTPEKRLELVAAINSNVISTYYLDTVKGRFTISRDNAKNTLYLQMSSLKSEDTALYYCARHEDYYGFAMDYWGQGTSVTVSS
VL: SIVMTQTPKFLLVSAGDRVTITCKASQSVSNDVAWYQEKPGQSPKLLMYYVSHRFTGVPDRFTGSGYGTDFTFTINTVQAEDLAVYFCHQAYRSPWTFGGGTKLEIK
notes: chimeric
B2: Chi-54 (antibody, V domains shown)
VH: B1 VH with V37I, V55G, S57N
VL: B1 VL with E38Q, H53N, H89Q
notes: chimeric
B3: Chi-72 (antibody, V domains shown)
VH: B1 VH with K3Q, A23V, V37I, V55D, S57N, N74I, Y80H
VL: DIQLTQSPASLSVSVGETVTITCRVSANIYSNLVWYHQRQGKSPQLLVYGGTNLADGVPSRFSGSGSGTQFSLKINSLQSEDFGSYHCQHFWSTPYTFGGGTKLEIK
notes: chimeric
B4: Hu23 (antibody, IgG4, V domains shown)
VH: EVQLVESGGGLVKPGGSLRLSCAASGFTFSSYHMSWVRQAPGKGLELVSAISRDGDSTYYPDTVKGRFTISRDDAENSLYLQMNSLRAEDTAVYYCSRHEDYFGFAMDSWGQGTLVTVSS
VL: DIQMTQSPSSLSASVGDRVTITCKASQSVSNDVAWYQQKPGKAPKLLIYYVSNRFTGVPSRFSGSGSGTDFTLTISSLQPEDFATYFCQQAYRSPWTFGQGTKLEIK
notes: humanized IgG4
B5: Hu34 (antibody, IgG4, V domains shown)
VH: B4 VH with K13Q, S49A
VL: DIVMTQSPDSLAVSLGERATINCKASQSVSNDVAWYQQKPGQPPKLLIYYVSHRFTGVPDRFSGSGSGTDFTLTISSLQAEDVAVYFCHQAYRSPWTFGQGTKLEIK
notes: humanized IgG4
B6: Hu24 (antibody, IgG4, V domains shown)
VH: B4 VH
VL: EIVMTQSPPTLSLSPGERVTLSCKASQSVSNDVAWYQQKPGQAPRLLIYYVSNRFTGIPARFSGSGSGTDFTLTISSLQPEDFAVYFCQQAYRSPWTFGQGTKLEIK
notes: humanized IgG4
B7: Hu33 (antibody, IgG4, V domains shown)
VH: B4 VH with K13Q, S49A
VL: B6 VL with Q38E, N53H, F87Y, Q89H
notes: humanized IgG4
B8: Hu35 (antibody, IgG4, V domains shown)
VH: B4 VH with K13Q, S49A
VL: B4 VL
notes: humanized IgG4
B9: Hu36 (antibody, IgG4, V domains shown)
VH: B4 VH with K13Q, S49A
VL: B6 VL
notes: humanized IgG4
B10: Hu30 (antibody, IgG4, V domains shown)
VH: B4 VH with K13Q, S49A, D74N, E76K
VL: B6 VL
notes: humanized IgG4
B11: Hu17 (antibody, IgG4, V domains shown)
VH: B4 VH with D74N, E76K
VL: B4 VL
notes: humanized IgG4

The binders below were run against T1, human CD112R on CHO-CD112R cells (assay: FACS on CHO-CD112R cells).
Protocol: (§1) CHO-CD112R cells (constructed in-house by Junshi, the amino acid sequence of CD112R in the construction of stable cell lines overexpressing CD112R comprises amino acids at positions Met1-Arg326 under NCBI accession No. Q6DKI7) overexpressing human CD112R were incubated with each of the chimeric anti-CD112R antibodies at different concentrations (initial concentration: 50 μg/mL, 5-fold dilution, 12 concentration gradients in total) at 4° C. for 30 min, and then washed and incubated with a fluorescence-labeled secondary antibody at 4° C. for 30 min in the dark. Finally, the cells were collected by using a flow cytometer (BD Canto II), and the fluorescent antibodies bound to the cell surface were detected. Raw data were analyzed by using FlowJo to obtain MFI values, the antibody dose-dependent binding curves were fitted by using GraphPad (FIG. 3, a and b) and EC₅₀ was calculated (Table 3). The positive control and the negative control were Ref (anti-CD112R antibody, University of Colorado, obtained by expression and purification according to the sequences in US20170240613) and anti-KLH hu-IgG4 antibody, respectively.

EC50 | Binder
0.726 µg/mL | B1
0.122 µg/mL | B2
12.3 µg/mL | B3

The binders below were run against T2, hCD112R mFC recombinant protein (assay: FACS competition, hCD112R mFc on CHO CD112 cells; IC50 COM701/IC50 antibody).
In short: (§2)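 CHO cells overexpressing human CD112 were co-incubated 30 min at 4 °C with hCD112R mFc (5 μg/mL) and humanized anti-CD112R antibodies (from 100 μg/mL, 3-fold, 10 points). Bound fusion protein detected with anti-mouse IgG Fc secondary by flow cytometry; IC50 from four-parameter fit of MFI. COM701 served as positive control, anti-KLH hu-IgG4 as negative.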

Relative activity (%) | Binder
141% | B4
149% | B5
124% | B6
144% | B7
105% | B8
146% | B9
151% | B10
169% | B11

Each binder was assayed against T2, hCD112R mFC recombinant protein (assay: FACS competition, hCD112R mFc on CHO CD112 cells).
In short: as §2

IC50 | Binder
2.53 µg/mL | B4
2.4 µg/mL | B5
2.89 µg/mL | B6
2.48 µg/mL | B7
3.4 µg/mL | B8
2.44 µg/mL | B9
2.37 µg/mL | B10
2.12 µg/mL | B11

The binders below were run against T2, hCD112R mFC recombinant protein (assay: ELISA, coated hCD112R-ECD-mFC).
In short: (§3)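 Plates coated with hCD112R-ECD-mFC at 1.5 μg/mL; humanized antibodies titrated from 1 μg/mL, 2.5-fold, 12 points. Bound antibody detected with HRP anti-human IgG Fc and TMB, read at 420/620 nm; EC50 from 4PL fit, COM701 and anti-KLH hu-IgG4 as controls.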

EC50 | Binder
0.00436 µg/mL | B4
0.00368 µg/mL | B5
0.00429 µg/mL | B6
0.00348 µg/mL | B7
0.00439 µg/mL | B8
0.0042 µg/mL | B9
0.00396 µg/mL | B10
0.00418 µg/mL | B11

The binders below were run against T1, human CD112R on CHO-CD112R cells (assay: FACS on CHO-CD112R cells; EC50 Ref/EC50 antibody).
Protocol: as §1

Relative activity (%) | Binder
231% | B1
3520% | B2
35% | B3

The binders below were run against T3, human CD112R on Jurkat CD112R effector … (assay: cell-based or functional assay).

EC50, CD112R/CD112 reporter | Relative activity (%), EC50 COM701/EC50 antibody | Binder
0.0374 µg/mL | 217% | B4
0.0336 µg/mL | 160% | B5
0.0485 µg/mL | 167% | B6
0.0341 µg/mL | 157% | B7
0.031 µg/mL | 184% | B8
0.0356 µg/mL | 160% | B9
0.034 µg/mL | 184% | B10
0.0228 µg/mL | 241% | B11

Each binder was assayed against T2, hCD112R mFC recombinant protein (assay: ELISA, coated hCD112R-ECD-mFC; EC50 COM701/EC50 antibody).
In short: as §3

Relative activity (%) | Binder
153% | B4
162% | B5
155% | B6
174% | B7
136% | B8
142% | B9
153% | B10
136% | B11

These binders were tested against T4, recombinant cynomolgus monkey CD112R … (assay: ELISA, coated cynomolgus monkey CD112R).
Protocol: (§4) A plate was coated with a recombinant cynomolgus monkey CD112R antigen (Acrobiosystems, Cat No. PVG-C5259) at a fixed concentration, and the chimeric anti-CD112R antibodies diluted in a gradient (initial concentration: 1 μg/mL, 2.5-fold gradient dilution, 12 concentration gradients in total) were added to bind to the antigen. Horseradish peroxidase (HRP)-conjugated mouse anti-human IgG4 Fc (Southern Biotech, 9200-05) was subjected to a 5000-fold dilution and used as a detection antibody for detection. The color development was performed with 0.1 mg/mL TMB, and finally stopped with 2 M hydrochloric acid. The plate was read at 420 nm/620 nm. EC₅₀ was obtained by fitting with a four-parameter logistic regression (4PL) model.

EC50 | Binder
0.00298 µg/mL | B1
0.00327 µg/mL | B2

These binders were tested against T4, recombinant cynomolgus monkey CD112R … (assay: ELISA, coated cynomolgus monkey CD112R; EC50 Ref/EC50 antibody).
Protocol: as §4

Relative activity (%) | Binder
118% | B1
107% | B2

Target: T3, human CD112R on Jurkat CD112R effector …
Assay: cell-based or functional assay
Remark: another data set of the same source

EC50, CD112R/CD112 reporter | Relative activity (%), EC50 Ref/EC50 antibody | Binder
0.0119 µg/mL | 2710% | B1
0.00746 µg/mL | 4210% | B2
